B1: PS3B27 (bispecific antibody, human IgG4 S228P, kappa, lambda, F234A L235A)
heavy 1: not shown
light 1: not shown
heavy 2: EVQLVESGGGLVQPGGSLRLSCAASGFTFNTYAMNWVRQAPGKGLEWVARIRSKYNNYATYYAASVKGRFTISRDDSKNSLYLQMNSLKTEDTAVYYCARHGNFGNSYVSWFAYWGQGTLVTVSSASTKGPSVFPLAPCSRSTSESTAALGCLVKDYFPEPVTVSWNSGALTSGVHTFPAVLQSSGLYSLSSVVTVPSSSLGTKTYTCNVDHKPSNTKVDKRVESKYGPPCPPCPAPEAAGGPSVFLFPPKPKDTLMISRTPEVTCVVVDVSQEDPEVQFNWYVDGVEVHNAKTKPREEQFNSTYRVVSVLTVLHQDWLNGKEYKCKVSNKGLPSSIEKTISKAKGQPREPQVYTLPPSQEEMTKNQVSLTCLVKGFYPSDIAVEWESNGQPENNYKTTPPVLDSDGSFLLYSKLTVDKSRWQEGNVFSCSVMHEALHNHYTQKSLSLSLGK
light 2: QTVVTQEPSLTVSPGGTVTLTCRSSTGAVTTSNYANWVQQKPGQAPRGLIGGTNKRAPGTPARFSGSLLGGKAALTLSGVQPEDEAEYYCALWYSNLWVFGGGTKLTVLGQPKAAPSVTLFPPSSEELQANKATLVCLISDFYPGAVTVAWKADSSPVKAGVETTTPSKQSNNKYAASSYLSLTPEQWKSHRSYSCQVTHEGSTVEKTVAPTECS
notes: IgG4 PAA; PSMA arm chains first, then CD3 arm (F405L, R409K); also called PSMB127 x CD3B219; PS2B27
B2: PS3B30 (bispecific antibody, human IgG4 S228P, kappa, lambda, F234A L235A)
heavy 1: not shown
light 1: not shown
heavy 2: B1 heavy 2
light 2: B1 light 2
notes: IgG4 PAA; PSMA arm chains first, then CD3 arm (F405L, R409K); also called PSMB130 x CD3B219
B3: PS3B28 (bispecific antibody, human IgG4 S228P, kappa, lambda, F234A L235A)
heavy 1: not shown
light 1: not shown
heavy 2: B1 heavy 2
light 2: B1 light 2
notes: IgG4 PAA; PSMA arm chains first, then CD3 arm (F405L, R409K); also called PSMB128 x CD3B219
B4: PS3B24 (bispecific antibody, human IgG4 S228P, kappa, lambda, F234A L235A)
heavy 1: not shown
light 1: not shown
heavy 2: B1 heavy 2
light 2: B1 light 2
notes: IgG4 PAA; PSMA arm chains first, then CD3 arm (F405L, R409K); also called PSMB124 x CD3B219
B5: PS3B22 (bispecific antibody, human IgG4 S228P, kappa, lambda, F234A L235A)
heavy 1: not shown
light 1: DIQMTQSPSSLSASVGDRVTITCRASQSIDRWLNWYQQKPGKAPKLLIYAASSLQSGVPSRFSGSGSGTDFTLTISSLQPEDFATYYCQQSPRYPLTFGQGTKVEIKRTVAAPSVFIFPPSDEQLKSGTASVVCLLNNFYPREAKVQWKVDNALQSGNSQESVTEQDSKDSTYSLSSTLTLSKADYEKHKVYACEVTHQGLSSPVTKSFNRGEC
heavy 2: B1 heavy 2
light 2: B1 light 2
notes: IgG4 PAA; PSMA arm chains first, then CD3 arm (F405L, R409K); also called PSMB122 x CD3B219; PSB22
B6: PS3B23 (bispecific antibody, human IgG4 S228P, kappa, lambda, F234A L235A)
heavy 1: not shown
light 1: not shown
heavy 2: B1 heavy 2
light 2: B1 light 2
notes: IgG4 PAA; PSMA arm chains first, then CD3 arm (F405L, R409K); also called PSMB123 x CD3B219
B7: PS3B19 (bispecific antibody, human IgG4 S228P, kappa, lambda, F234A L235A)
heavy 1: not shown
light 1: not shown
heavy 2: B1 heavy 2
light 2: B1 light 2
notes: IgG4 PAA; PSMA arm chains first, then CD3 arm (F405L, R409K); also called PSMB119 x CD3B219
B8: PS3B20 (bispecific antibody, human IgG4 S228P, kappa, lambda, F234A L235A)
heavy 1: not shown
light 1: not shown
heavy 2: B1 heavy 2
light 2: B1 light 2
notes: IgG4 PAA; PSMA arm chains first, then CD3 arm (F405L, R409K); also called PSMB120 x CD3B219
B9: PS3B25 (bispecific antibody, human IgG4 S228P, kappa, lambda, F234A L235A)
heavy 1: not shown
light 1: not shown
heavy 2: B1 heavy 2
light 2: B1 light 2
notes: IgG4 PAA; also called PSMB87 x CD3B219

Biological target: T1, recombinant chimpanzee PSMA extracellular domain (ECD) protein (Pan troglodytes, UniProt Q04609 44-750 (human entry))
T1 construct: also called Chimp PSMA ECD; PSMG8
T1 chain: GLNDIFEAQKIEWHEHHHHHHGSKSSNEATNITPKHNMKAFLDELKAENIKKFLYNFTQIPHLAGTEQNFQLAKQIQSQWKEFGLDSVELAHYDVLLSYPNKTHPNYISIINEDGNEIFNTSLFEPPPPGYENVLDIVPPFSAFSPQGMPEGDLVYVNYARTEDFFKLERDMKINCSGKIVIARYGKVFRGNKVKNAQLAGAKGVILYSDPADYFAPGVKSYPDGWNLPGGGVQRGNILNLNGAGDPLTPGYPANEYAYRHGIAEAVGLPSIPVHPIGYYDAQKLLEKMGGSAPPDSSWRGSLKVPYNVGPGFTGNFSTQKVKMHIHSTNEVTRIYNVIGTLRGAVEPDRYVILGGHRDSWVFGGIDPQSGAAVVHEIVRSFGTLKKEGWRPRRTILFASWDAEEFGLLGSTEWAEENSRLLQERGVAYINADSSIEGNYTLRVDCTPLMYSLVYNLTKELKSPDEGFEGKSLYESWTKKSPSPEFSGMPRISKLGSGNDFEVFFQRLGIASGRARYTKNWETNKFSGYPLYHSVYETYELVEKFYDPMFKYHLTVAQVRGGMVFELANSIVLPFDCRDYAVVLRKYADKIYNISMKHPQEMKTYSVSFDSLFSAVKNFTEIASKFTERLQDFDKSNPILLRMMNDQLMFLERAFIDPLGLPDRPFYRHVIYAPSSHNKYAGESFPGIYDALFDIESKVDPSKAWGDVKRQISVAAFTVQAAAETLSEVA
Assay: SPR ProteOn, bsAb captured by anti-Fc
Protocol: The interactions of PSMA×CD3 bispecific mAbs with target (recombinant Chimp, PSMA) were studied by Surface Plasmon Resonance (SPR) using a ProteOn XPR36 system (BioRad). […] Approximately 4400 RU (response units) of anti-Human IgG Fc antibodies were immobilized. The kinetic experiments were performed at 25° C. in running buffer (DPBS+0.03% P20+100 μg/ml BSA). […] The association phase was monitored for 3 minutes at 50 μL/min, then followed by 15 minutes of buffer flow (dissociation phase). The chip surface was regenerated with two 18 second pulses of 100 mM Phosphoric acid (H₃PO₄, Sigma, cat #7961) at 100 μL/min.
The collected data were processed using ProteOn Manager software. First, the data was corrected for background using inter-spots. Then, double reference subtraction of the data was performed by using the buffer injection for analyte injections. The kinetic analysis of the data was performed using a Langmuir 1:1 binding model.

For B1, which Kd is on record?
The Kd was 10.4 nM.

What about the koff of the same binder?
Its koff is 0.00176 s⁻¹.

What about the kon of the same binder?
Its kon is 170000 M⁻¹ s⁻¹.

How did the Kd turn out when B2 was run?
The Kd was 22.4 nM.

And the koff?
Its koff is 0.00165 s⁻¹.

What about the kon of the same binder?
Its kon is 73400 M⁻¹ s⁻¹.

What does the source list for B3?
Kd: 17.4 nM; koff: 0.00233 s⁻¹; kon: 134000 M⁻¹ s⁻¹

Which results are given for B4?
Kd: 40.3 nM; koff: 0.000252 s⁻¹; kon: 6260 M⁻¹ s⁻¹

How did the Kd turn out when B5 was run?
Its Kd is 19 nM.

And the koff?
Its koff is 0.00124 s⁻¹.

What about the kon of the same binder?
Its kon is 65100 M⁻¹ s⁻¹.

With B6 as the binder, how does the Kd read?
Its Kd is 1.8 nM.

And the koff?
The koff was 0.00176 s⁻¹.

And the kon?
The kon was 989000 M⁻¹ s⁻¹.

With B7 as the binder, how does the Kd read?
The Kd was 23.6 nM.

And the koff?
Its koff is 0.000298 s⁻¹.

What about the kon of the same binder?
Its kon is 12600 M⁻¹ s⁻¹.

How did the Kd turn out when B8 was run?
Its Kd is 21.4 nM.

What about the koff of the same binder?
Its koff is 0.000378 s⁻¹.

And the kon?
Its kon is 17600 M⁻¹ s⁻¹.

What does the source list for B9?
Kd: 5.5 nM; koff: 0.00106 s⁻¹; kon: 195000 M⁻¹ s⁻¹

Biological target: T2, Cynomolgous monkey PSMA, full length (Macaca fascicularis, UniProt Q04609 1-750 (human entry))
T2 construct: On transfected HEK293F cells; also called cyno PSMA; EHH56646.1
T2 chain: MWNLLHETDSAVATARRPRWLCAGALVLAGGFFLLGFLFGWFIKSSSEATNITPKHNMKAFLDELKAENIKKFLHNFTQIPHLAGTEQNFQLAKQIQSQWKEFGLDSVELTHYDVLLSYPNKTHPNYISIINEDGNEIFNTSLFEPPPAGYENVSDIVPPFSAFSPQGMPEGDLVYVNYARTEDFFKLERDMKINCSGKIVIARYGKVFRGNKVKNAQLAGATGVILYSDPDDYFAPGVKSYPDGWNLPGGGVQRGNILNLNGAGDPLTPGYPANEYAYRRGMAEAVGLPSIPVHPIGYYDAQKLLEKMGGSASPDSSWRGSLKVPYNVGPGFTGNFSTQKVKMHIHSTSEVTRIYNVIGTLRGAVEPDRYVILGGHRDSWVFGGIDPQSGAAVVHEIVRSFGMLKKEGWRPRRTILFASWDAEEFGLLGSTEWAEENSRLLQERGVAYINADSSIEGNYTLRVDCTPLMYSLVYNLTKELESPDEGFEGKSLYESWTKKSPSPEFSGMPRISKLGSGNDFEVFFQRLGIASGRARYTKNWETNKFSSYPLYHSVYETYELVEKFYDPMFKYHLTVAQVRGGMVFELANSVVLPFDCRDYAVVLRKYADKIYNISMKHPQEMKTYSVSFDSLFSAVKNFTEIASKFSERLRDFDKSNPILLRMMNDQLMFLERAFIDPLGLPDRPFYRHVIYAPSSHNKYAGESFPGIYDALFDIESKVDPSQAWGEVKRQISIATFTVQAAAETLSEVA
Assay: FACS, whole cell binding, cyno PSMA HEK
Protocol: (§1) PSMA×CD3 bispecific antibodies were tested for binding to PSMA positive cell lines LNCAP, human PSMA-HEK, Chimpanzee-PSMA-HEK and Cynomolgous monkey PSMA-HEK. To assess the binding capabilities of the PSMA bispecific antibodies, the cell-binding assay was utilized (described previously). Briefly, PSMA expressing tumor cells are bound by bispecific antibodies at known concentrations and the bound antibody is detected by an anti-human kappa light chain PE conjugated detection reagent (Invitrogen). The Mean Fluorescents Intensity (MFI) is the measure of bound bispecific antibody. The MFI is converted to a relative EC₅₀. EC₅₀ is a commonly used dose-response curve, where the half maximal effective concentration or the EC₅₀ point is defined as the inflection point of the curve. EC₅₀ s were determined by measuring cell bound bispecific and known concentrations. […] The dose response curves were then diluted down to that of background or no bispecific binding. The inflection point of this curve reflects the EC₅₀ point. The calculated EC₅₀ is determined by taking the ug/ml amount of bispecific antibody at the EC₅₀ point and converting it to a molarity value based on the MW of the bispecific antibody. Bispecific antibodies were normalized for protein concentration and then incubated with the same number of cells expressing either human or cyno PSMA. The MFI at each concentration was collected by flow cytometry and plotted as a function of concentration. Data was transformed via log 10 and then plotted. Nonlinear regression of binding curves was done to determine EC₅₀ s. These relative values were used for ranking PSMA binding to target cells.

How did the EC50 turn out when B1 was run?
The EC50 was 1.4 µg/mL.

B2 was tested. Which EC50 did it give?
Its EC50 is 5.37 µg/mL.

Which EC50 does the source give for B3 here?
The EC50 was 0.688 µg/mL.

With B4 as the binder, how does the EC50 read?
Its EC50 is 18.2 µg/mL.

For B5, which EC50 is on record?
The EC50 was 1.14 µg/mL.

With B6 as the binder, how does the EC50 read?
Its EC50 is 3.74 µg/mL.

B7 was tested. Which EC50 did it give?
The EC50 was 1.76 µg/mL.

How did the EC50 turn out when B8 was run?
Its EC50 is 2 µg/mL.

Biological target: T2, Cynomolgous monkey PSMA, full length
Assay: FACS, whole cell binding, cyno PSMA HEK; calculated EC50
Protocol: as §1

For B1, which EC50 is on record?
Its EC50 is 9.9 nM.

For B2, which EC50 is on record?
Its EC50 is 37.8 nM.

With B3 as the binder, how does the EC50 read?
The EC50 was 4.8 nM.

How did the EC50 turn out when B4 was run?
The EC50 was 128 nM.

B5 was tested. Which EC50 did it give?
Its EC50 is 8 nM.

For B6, which EC50 is on record?
The EC50 was 26.4 nM.

For B7, which EC50 is on record?
Its EC50 is 12.4 nM.

B8 was tested. Which EC50 did it give?
The EC50 was 14.1 nM.
